Test results published in publication PMC3724350.

Assays:
[1] = molecular target: Shewanella oneidensis diheme cytochrome c peroxidase, maltose-binding protein fusion (Shewanella oneidensis); experiment: SEC
[2] = molecular target: Shewanella oneidensis diheme cytochrome c peroxidase, tag-free (Shewanella oneidensis); experiment: SEC

Row | Substance | stoichiometry N [1] | stoichiometry N [2]
1 | Shewanella oneidensis diheme cytochrome c peroxidase, maltose-binding protein fusion (enzyme) | 2 | 
2 | Shewanella oneidensis diheme cytochrome c peroxidase, tag-free (enzyme) |  | 2
